Results as given in US20240116985A1 (published 2024).
Starred links: 1 amine or outer side, 2 acyl side, 3 side chain; linkers in the order of their positions; H or OH if unused. Positions of bridges follow the written chain, without caps; N, C: chain ends. Non-standard residues stand in square brackets, D forms with d. Primed or numbered codes have the meaning given here. *: point of attachment. PyrS2″ = (S)-3-amino-1-((pent-4-en-1-yloxy)carbonyl)pyrrolidine-3-carboxylic acid (stapling residue), C=CCCCOC(=O)N1CC[C@@](N[*:1])(C(=O)[*:2])C1; B5(16) = 2-amino-2-(pent-4-en-1-yl)hept-6-enoic acid = 2,2-bis(4-pentenyl)glycine (stitching residue), C=CCCCC(CCCC=C)(N[*:1])C(=O)[*:2]; B5(4) = 2,2-bis(4-pentenyl)glycine = 2-amino-2-(pent-4-en-1-yl)hept-6-enoic acid (stitching residue), C=CCCCC(CCCC=C)(N[*:1])C(=O)[*:2]; TfeGA = (S)-2-amino-3-((carboxymethyl)(2,2,2-trifluoroethyl)amino)propanoic acid, O=C([C@H](CN(CC(=O)[*:3])CC(F)(F)F)N[*:1])[*:2]; PyrS2 = (S)-3-amino-1-((pent-4-en-1-yloxy)carbonyl)pyrrolidine-3-carboxylic acid, C=CCCCOC(=O)N1CC[C@@](N[*:1])(C(=O)[*:2])C1; (AcPpz)GlnR″ = (S)-5-(4-acetylpiperazin-1-yl)-2-amino-5-oxopentanoic acid, CC(=O)N1CCN(C(=O)CC[C@H](N[*:1])C(=O)[*:2])CC1; B5(3) = 2,2-bis(4-pentenyl)glycine (stitching residue), C=CCCCC(CCCC=C)(N[*:1])C(=O)[*:2]; Phe(3-COOH) = N[C@@H](Cc1cccc(C(=O)O)c1)C(=O)O; Phe(2-CF3) = N[C@@H](Cc1ccccc1C(F)(F)F)C(=O)O; Phe(2-Cl) = N[C@@H](Cc1ccccc1Cl)C(=O)O; dαMeGly(allyl) = C=CC[C@@](C)(N)C(=O)O; Bta = N[C@@H](Cc1csc2ccccc12)C(=O)O; αAllylPro = C=CC[C@@]1(C(=O)O)CCCN1; tBuAla = CC(C)(C)C[C@H](N)C(=O)O; 3Thi = N[C@@H](Cc1ccsc1)C(=O)O; Cha = N[C@@H](CC1CCCCC1)C(=O)O; S8 = C=CCCCCCC[C@](C)(N)C(=O)O; R5 = C=CCCC[C@@](C)(N)C(=O)O; NH(CH2)6NH2 = NCCCCCCN*; Abu = CC[C@H](N)C(=O)O; Aib = CC(C)(N)C(=O)O

T1: B-cat-Halo (UniProt P35222 1-781)
T1 sequence (looked up): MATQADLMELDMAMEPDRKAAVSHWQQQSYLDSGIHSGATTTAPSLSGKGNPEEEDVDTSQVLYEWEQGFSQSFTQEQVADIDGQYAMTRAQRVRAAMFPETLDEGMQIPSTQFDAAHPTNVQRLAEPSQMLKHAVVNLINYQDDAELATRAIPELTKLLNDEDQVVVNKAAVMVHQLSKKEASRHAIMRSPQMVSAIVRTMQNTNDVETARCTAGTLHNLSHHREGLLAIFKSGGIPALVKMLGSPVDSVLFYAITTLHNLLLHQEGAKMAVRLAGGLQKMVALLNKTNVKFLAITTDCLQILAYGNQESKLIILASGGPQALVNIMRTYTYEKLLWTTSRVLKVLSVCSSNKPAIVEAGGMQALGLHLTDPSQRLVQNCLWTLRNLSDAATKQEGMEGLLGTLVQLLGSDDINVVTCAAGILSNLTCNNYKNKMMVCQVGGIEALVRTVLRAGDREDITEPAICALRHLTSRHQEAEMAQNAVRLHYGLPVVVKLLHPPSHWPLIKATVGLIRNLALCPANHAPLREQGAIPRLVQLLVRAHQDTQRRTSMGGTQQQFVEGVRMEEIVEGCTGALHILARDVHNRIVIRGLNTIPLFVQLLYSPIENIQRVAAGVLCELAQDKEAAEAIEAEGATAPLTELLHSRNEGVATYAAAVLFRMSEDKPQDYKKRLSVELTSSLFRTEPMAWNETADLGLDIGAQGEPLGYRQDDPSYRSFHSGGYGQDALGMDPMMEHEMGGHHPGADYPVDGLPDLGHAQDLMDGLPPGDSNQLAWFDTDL

T2: B-cat-Halo (beta-catenin HaloTag fusion expressed in HEK293 cells) (UniProt P35222 1-781)
T2 sequence (looked up): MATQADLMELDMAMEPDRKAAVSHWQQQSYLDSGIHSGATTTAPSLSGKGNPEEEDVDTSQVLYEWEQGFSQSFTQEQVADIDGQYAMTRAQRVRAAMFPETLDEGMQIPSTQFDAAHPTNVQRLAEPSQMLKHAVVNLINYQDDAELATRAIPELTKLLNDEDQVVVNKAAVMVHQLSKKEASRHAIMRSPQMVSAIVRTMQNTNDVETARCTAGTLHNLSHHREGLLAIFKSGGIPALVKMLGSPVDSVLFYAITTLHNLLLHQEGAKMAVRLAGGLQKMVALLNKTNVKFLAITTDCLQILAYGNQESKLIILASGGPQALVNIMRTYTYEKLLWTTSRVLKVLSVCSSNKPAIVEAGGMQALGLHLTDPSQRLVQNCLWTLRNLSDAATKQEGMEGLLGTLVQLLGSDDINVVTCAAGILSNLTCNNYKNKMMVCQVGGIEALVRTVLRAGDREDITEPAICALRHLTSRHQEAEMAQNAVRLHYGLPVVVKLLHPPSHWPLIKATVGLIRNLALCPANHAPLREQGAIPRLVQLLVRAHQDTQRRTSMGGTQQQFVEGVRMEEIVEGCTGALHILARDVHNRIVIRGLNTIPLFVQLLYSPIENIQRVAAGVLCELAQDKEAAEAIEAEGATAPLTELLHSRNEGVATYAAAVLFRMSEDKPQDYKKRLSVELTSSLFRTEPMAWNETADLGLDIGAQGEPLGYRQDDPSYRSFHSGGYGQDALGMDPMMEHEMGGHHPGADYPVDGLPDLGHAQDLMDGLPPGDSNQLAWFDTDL

T3: B-cat-Halo (beta-catenin HaloTag NanoBRET construct expressed in HEK293 cells) (UniProt P35222 2-781)
T3 sequence (looked up): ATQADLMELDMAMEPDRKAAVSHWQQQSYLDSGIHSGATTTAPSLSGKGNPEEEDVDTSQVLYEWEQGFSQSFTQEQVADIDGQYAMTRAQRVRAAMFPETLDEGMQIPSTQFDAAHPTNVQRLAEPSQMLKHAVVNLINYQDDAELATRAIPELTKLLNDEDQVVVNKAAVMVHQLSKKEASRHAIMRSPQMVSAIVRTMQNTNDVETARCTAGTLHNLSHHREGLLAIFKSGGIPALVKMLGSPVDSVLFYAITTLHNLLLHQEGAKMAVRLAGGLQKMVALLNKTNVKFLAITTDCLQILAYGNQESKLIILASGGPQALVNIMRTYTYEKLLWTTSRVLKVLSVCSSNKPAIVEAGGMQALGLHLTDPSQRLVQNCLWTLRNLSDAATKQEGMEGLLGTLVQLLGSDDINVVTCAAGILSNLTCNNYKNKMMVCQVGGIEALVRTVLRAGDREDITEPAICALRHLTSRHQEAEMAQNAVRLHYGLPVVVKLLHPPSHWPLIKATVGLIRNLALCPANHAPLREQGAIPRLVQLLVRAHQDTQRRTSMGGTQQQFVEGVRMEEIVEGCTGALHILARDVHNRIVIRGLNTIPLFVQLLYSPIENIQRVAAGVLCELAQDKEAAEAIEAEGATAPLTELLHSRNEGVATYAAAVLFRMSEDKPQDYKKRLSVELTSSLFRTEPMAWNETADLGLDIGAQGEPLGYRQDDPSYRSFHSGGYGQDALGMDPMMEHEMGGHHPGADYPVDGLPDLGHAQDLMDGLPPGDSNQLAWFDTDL


Molecular target: T1, B-cat-Halo
Assay: cell-based or functional assay

Row | NanoBRET Abs IC50 [µM] | Binder
1 | 24.8 | Ac-[αAllylPro]D[Cha][B5(4)]DDAAFS[PyrS2][Phe(2-Cl)][Bta]S-NH2 (staple 1-4, 4-11) [I-1050]
2 | 10.3 | Ac-[αAllylPro]D[tBuAla][B5(4)]D[TfeGA]AAFT[PyrS2][Phe(2-Cl)][Bta]Q-{NH(CH2)6NH2} (staple 1-4, 4-11) [I-1061]
3 | 17.6 | Ac-[αAllylPro]D[Cha][B5(16)]DDAAFS[PyrS2″][Phe(2-Cl)][Bta]Q-NH2 (staple 1-4, 4-11) [I-1044]
4 | 8.8 | Ac-[αAllylPro]D[Cha][B5(4)]DDAAFT[PyrS2″][Phe(2-Cl)][Bta]S-NH2 (staple 1-4, 4-11) [I-1048]
5 | 20.5 | Ac-[αAllylPro]D[Cha][B5(16)]DDAAFN[PyrS2″][Phe(2-Cl)][Bta]S-NH2 (staple 1-4, 4-11) [I-1046]
6 | 11.4 | Ac-[αAllylPro]D[Cha][B5(16)]DDAAFT[PyrS2″][Phe(2-Cl)][Bta]Q-NH2 (staple 1-4, 4-11) [I-1042]
7 | 4.7 | Ac-[αAllylPro]D[tBuAla][B5(4)]DDAAFL[PyrS2″][Phe(2-Cl)][Bta]Q-NH2 (staple 1-4, 4-11) [I-1062]
8 | 9.3 | Ac-[αAllylPro]D[Cha][B5(16)]DDAAFN[PyrS2″][Phe(2-Cl)][Bta]Q-NH2 (staple 1-4, 4-11) [I-1040]

Molecular target: T2, B-cat-Halo (beta-catenin HaloTag fusion …)
Assay: cell-based or functional assay

Row | Binder | NanoBRET Abs IC50 [µM]
9 | Ac-[R5]D[tBuAla][B5(4)]D[Phe(3-COOH)]AAFL[PyrS2″][Phe(2-CF3)][Bta]Q-NH2 (staple 1-4, 4-11; not fully specified; printed as Ac-R5-Asp-Npg-B5-Asp-3COOHF-Ala-Ala-Phe-Leu-PyrS2-2F3MeF-BztA-Gln-NH2) [I-2565] | 21
10 | Ac-P[dαMeGly(allyl)]D[tBuAla][B5(4)]D[Phe(3-COOH)]AAFL[PyrS2″][Phe(2-CF3)][Bta]Q-NH2 (staple 5-12, 2-5; also: -CH=CH- in each staple reduced to -CH2-CH2-) [I-2572] | > 20

Next, values leading:

Row | NanoBRET Abs IC50 [µM] | Binder
11 | 17 | Ac-[dαMeGly(allyl)]D[tBuAla][B5(4)]D[Phe(3-COOH)]AAFL[PyrS2″][Phe(2-CF3)][Bta]Q-NH2 (staple 1-4, 4-11) [I-2563]
12 | 7.2 | Ac-[αAllylPro]D[tBuAla][B5(4)]D[Phe(3-COOH)][Aib]AF[Abu][PyrS2″][3Thi][Bta][(AcPpz)GlnR″]-NH2 (staple 1-4, 4-11) [I-2561]
13 | 24 | Ac-[R5]D[tBuAla][B5(4)]D[Phe(3-COOH)]AAFL[PyrS2″][Phe(2-CF3)][Bta]Q-NH2 (staple 1-4, 4-11; also: -CH=CH- in each staple reduced to -CH2-CH2-) [I-2571]

Molecular target: T3, B-cat-Halo (beta-catenin HaloTag …)
Assay: cell-based or functional assay

Row | NanoBRET Abs IC50 [µM] | Binder
14 | 7.7 | Ac-[αAllylPro]D[tBuAla][B5(3)]DDAAFT[S8][Phe(2-Cl)][Bta][dT]-NH2 (staple 1-4, 4-11) [I-1092]
